In patent US20250027068A1:

B1: VRT-13 (Fc fusion)
chain: QITSVWTKGVTPPTPEQFRYNNEDVFHAPYTAHQGWYDITKTFDGKDNLLCGAATAGNMLHWWFDQNKTEIEAYLSKHPEKQKIIFNNQELFDLKAAIDTKDSQTNSALFNYFRDKAFPNLSARQLGVMPDLVLDMFINGYYLNVFKTQSTDVNRPYQDKDKRGGIFDAVFTRGDQTTLLTARHDLKNKTLNDISTIIKQELTEGRALALSHTYANVSISHVINLWGADFNAEGNLEAIYVTDSDSNASIGMKKYFVGVNASGKVAISAKKIEGENIGAQVLGLFTLSSGKDIWQKLSDKTHTCPPCPAPEAAGAPSVFLFPPKPKDTLMISRTPEVTCVVVDVSHEDPEVKFNWYVDGVEVHNAKTKPREEQQNSTYRVVSVLTVLHQDWLNGKEYKCKVSNKALKAPIEKTISKAKGQPREPQVYTLPPSRDELTKNQVSLTCLVKGFYPSDIAVEWESNGQPENNYKTTPPVLDSDGSFFLYSKLTVDKSRWQQGNVFSCSVMHEALHNHYTQKSLSLSPG
B2: VRT-18 (Fc fusion)
chain: QITSVWTKGVTPLTPEQFRYNNEDVIHAPYLAHQGWYDITKAFDGKDNLLCGAATAGNMLHWWFDQNKTEIEAYLSKHPEKQKIIFNNQELFDLKAAIDTKDSQTNSQLFNYFRDKAFPGLSARQLGVFPDLVLDMFINGYYLNVFKTQSTDVNRPYQDKDKRGGIFDAVFTRGVQTTLLTARHDLKNKGLNDISTIIKQELTEGRALALSHTYANVRISHVINLWGADFNAEGNLEAIYVTDSDANASIGMKKYFVGINAHGHVAISAKKIEGENIGAQVLGLFTLSSGKDIWQKLSDKTHTCPPCPAPEAAGAPSVFLFPPKPKDTLMISRTPEVTCVVVDVSHEDPEVKFNWYVDGVEVHNAKTKPREEQQNSTYRVVSVLTVLHQDWLNGKEYKCKVSNKALKAPIEKTISKAKGQPREPQVYTLPPSRDELTKNQVSLTCLVKGFYPSDIAVEWESNGQPENNYKTTPPVLDSDGSFFLYSKLTVDKSRWQQGNVFSCSVMHEALHNHYTQKSLSLSPG
B3: VRT-22 (Fc fusion)
chain: QITSVWTKGVTPLTPEQFRYYNEDVIHAPYLAHQGWYDITKAFDGKDNLLCGAATAGNMLHWWFDQNKTEIEAYLSKHPEKQKIIFKNQELFDLKAAIDTKDSQTNSQLFNYFRDKAFPGLSARQLGVFPDLVLDMFINGYYLNVFKTQSTDVNRPYQDKDKRGGIFDAVFTRGVQTTLLTARHDLKNKGLNDISTIIKQELTEGRALALSHTYANVRISHVINLWGADFNAEGNLEAIYVTDSDTRASIGMKKYFVGINAHGHVAISAKKIEGENIGAQVLGLFTLSSGKDIWQKLSDKTHTCPPCPAPEAAGAPSVFLFPPKPKDTLMISRTPEVTCVVVDVSHEDPEVKFNWYVDGVEVHNAKTKPREEQQNSTYRVVSVLTVLHQDWLNGKEYKCKVSNKALKAPIEKTISKAKGQPREPQVYTLPPSRDELTKNQVSLTCLVKGFYPSDIAVEWESNGQPENNYKTTPPVLDSDGSFFLYSKLTVDKSRWQQGNVFSCSVMHEALHNHYTQKSLSLSPG
B4: VRT-16 (Fc fusion)
chain: VTSVWTKGVTPPANFTQGEDVFHAPYVANQGWYDITKTFNGKDNLLCGAATAGNMLHWWFDQNKDQIKRYLEEHPEKQKINFNGEQLFDVKEAIDTKNHQLDSKLFEYFKEKAFPYLSTKHLGVFPDHVIDMFINGYRLSLTNHGPTPVKEGSKDKRGGIFDAVFTRGVQSKLLTSRHDFKEKNLKEISDLIKKELTEGKALGLSHTYANVRINHVINLWGADFDSNGNLKAIYVTDSDTNASIGMKKYFVGVNSAGKVAISAKEIKEDNIGAQVLGLFTLSTGQDSWNQTNDKTHTCPPCPAPEAAGAPSVFLFPPKPKDTLMISRTPEVTCVVVDVSHEDPEVKFNWYVDGVEVHNAKTKPREEQQNSTYRVVSVLTVLHQDWLNGKEYKCKVSNKALKAPIEKTISKAKGQPREPQVYTLPPSRDELTKNQVSLTCLVKGFYPSDIAVEWESNGQPENNYKTTPPVLDSDGSFFLYSKLTVDKSRWQQGNVFSCSVMHEALHNHYTQKSLSLSPG
B5: VRT-20 (Fc fusion)
chain: VTSVWTKGVTPPANFTQGEDVFHAPYVANQGWYDITKTFNRKDNLLCGAATAGNMLHWWFDQNKDQIKRYLEEHPEKQKINFKGEQLFDVKEAIDTKNHQLDSKLFEYFKEKAFPYLSTKHLGVFPDHVIDMFINGYRLSLTNHGPTPVKEGSKDKRGGIFDAVFTRGVQSKLLTSRHDFKEKNLKEISDLIKKELTEGKALGLSHTYANVRINHVINLWGADFDSNGNLKAIYVTDSDTEASIGMKKYFVGVNKAGKVAISAKEIKEDNIGAQVLGLFTLSTGQDSWNQTNDKTHTCPPCPAPEAAGAPSVFLFPPKPKDTLMISRTPEVTCVVVDVSHEDPEVKFNWYVDGVEVHNAKTKPREEQQNSTYRVVSVLTVLHQDWLNGKEYKCKVSNKALKAPIEKTISKAKGQPREPQVYTLPPSRDELTKNQVSLTCLVKGFYPSDIAVEWESNGQPENNYKTTPPVLDSDGSFFLYSKLTVDKSRWQQGNVFSCSVMHEALHNHYTQKSLSLSPG
B6: VRT-17 (Fc fusion)
chain: VTSVWTKGVTPPAKFTQGEDVFHAPYVANQGWYDITKTFNGKDNLLCGAATAGNMLHWWFDQNKEKIEAYLKKHPDKQKIIFGDQELLDVRKVINTKGDQTNSELFNYFRDKAFPGLSARRIGVFPDLVLDMFINGYYLNVYKTQTTDVNRTYQEKDRRGGIFDAVFTRGVQSKLLTSRHDFKEKNLKEISDLIKKELTEGKALGLSHTYANVRINHVINLWGADFDSNGNLKAIYVTDSDTNASIGMKKYFVGVNSAGKVAISAKEIKEDNIGAQVLGLFTLSTGQDSWNQTNDKTHTCPPCPAPEAAGAPSVFLFPPKPKDTLMISRTPEVTCVVVDVSHEDPEVKFNWYVDGVEVHNAKTKPREEQQNSTYRVVSVLTVLHQDWLNGKEYKCKVSNKALKAPIEKTISKAKGQPREPQVYTLPPSRDELTKNQVSLTCLVKGFYPSDIAVEWESNGQPENNYKTTPPVLDSDGSFFLYSKLTVDKSRWQQGNVFSCSVMHEALHNHYTQKSLSLSPG
B7: VRT-21 (Fc fusion)
chain: VTSVWTKGVTPPAKFTQGEDVFHAPYVANQGWYDITKTFNRKDNLLCGAATAGNMLHWWFDQNKEKIEAYLKKHPDKQKIIFGDQELLDVRKVINTKGDQTNSELFNYFRDKAFPGLSARRIGVFPDLVLDMFINGYYLNVYKTQTTDVNRTYQEKDRRGGIFDAVFTRGVQSKLLTSRHDFKEKNLKEISDLIKKELTEGKALGLSHTYANVRINHVINLWGADFDSNGNLKAIYVTDSDTRASIGMKKYFVGVNAAGKVAISAKEIKEDNIGAQVLGLFTLSTGQDSWNQTNDKTHTCPPCPAPEAAGAPSVFLFPPKPKDTLMISRTPEVTCVVVDVSHEDPEVKFNWYVDGVEVHNAKTKPREEQQNSTYRVVSVLTVLHQDWLNGKEYKCKVSNKALKAPIEKTISKAKGQPREPQVYTLPPSRDELTKNQVSLTCLVKGFYPSDIAVEWESNGQPENNYKTTPPVLDSDGSFFLYSKLTVDKSRWQQGNVFSCSVMHEALHNHYTQKSLSLSPG
B8: VRT-14 (Fc fusion)
chain: SQTEDSESLQRLRDIEDFQAEKKKQNVVYTKWLDGVDVKDHDFRKIVDGNIAYYATPLLNGRGFYDINKDFNRDSDKCAAAVAANMFHYWLDRNRDNVDRFLRQNPEKHGIIELPDGQLKLSDFLNTYESDDGYRDKSKLFDFISNNFNGPVWTDKLLDNYINGYAYNYKYGRTIEDPTKNTSKINFFKEVFNEKILTNNHSIRNQNEFSVLLSEALYTGKAIGLSYGPAGLRHSLGHIISVWGADLDADGNVVAIYVTDSDDKKLTIGDERVGLKRYKISTDDEGRLRLTAYEETHNTGGQIRGLWTLDTGKQAWADYFDKTEQTGTDQAEQDKTHTCPPCPAPEAAGAPSVFLFPPKPKDTLMISRTPEVTCVVVDVSHEDPEVKFNWYVDGVEVHNAKTKPREEQQNSTYRVVSVLTVLHQDWLNGKEYKCKVSNKALKAPIEKTISKAKGQPREPQVYTLPPSRDELTKNQVSLTCLVKGFYPSDIAVEWESNGQPENNYKTTPPVLDSDGSFFLYSKLTVDKSRWQQGNVFSCSVMHEALHNHYTQKSLSLSPG
B9: VRT-19 (Fc fusion)
chain: SQTEDSESLQRLRDIEDFQAEKKMQNVVYTKWLDGVDVKDHDFRKIVDGNIAYYATPLLNGRGFYDINKDFNRDNDKCAAAVAANMFHYWLDINRDNVDRFLRQNPEKHGIIELPDGQLKLSDFLNTYESDHGYRDKSKLFDFISNNFNGPVWTDKLLDNYINGYAYNYKYGRTIEDSTKNTSKINFFKEVFNEKILTNNHSIRNQNEFSVLLSEALYTGKAIGLSYGPAGLRHSLGHIISVWGADLDADGNVVAIYVTDSDDKKLTIGDERVGLKRYKISTDDENRLRLTAYEETHNTGGQIRGLWTLDTGKYAWADYFDKTEQTGTDQAEQDKTHTCPPCPAPEAAGAPSVFLFPPKPKDTLMISRTPEVTCVVVDVSHEDPEVKFNWYVDGVEVHNAKTKPREEQQNSTYRVVSVLTVLHQDWLNGKEYKCKVSNKALKAPIEKTISKAKGQPREPQVYTLPPSRDELTKNQVSLTCLVKGFYPSDIAVEWESNGQPENNYKTTPPVLDSDGSFFLYSKLTVDKSRWQQGNVFSCSVMHEALHNHYTQKSLSLSPG

molecular target: pooled human IgG (human); assay: cell-based or functional assay

Row | Binder | Enzyme Activity Endpoint Assay: Fab′2 [ng/µL] | Enzyme Activity Endpoint Assay: Fc [ng/µL] | Enzyme Activity Endpoint Assay: IgG [ng/µL] | Enzyme Activity Endpoint Assay: scIgG [ng/µL]
1 | B1 | 0 | 97 | 814 | 42
2 | B2 | 0 | 4 | 995 | 9
3 | B3 | 0 | 31 | 1010 | 21
4 | B4 | 0 | 130 | 682 | 91
5 | B5 | 0 | 5 | 981 | 12
6 | B6 | 0 | 5 | 1030 | 20
7 | B7 | 0 | 6 | 949 | 11
8 | B8 | 0 | 4 | 1020 | 22
9 | B9 | 0 | 54 | 1250 | 33
